# T1: hAng1 (human, UniProt Q15389 20-498, limits assumed)
# T1 construct: Tested by the same SPR set-up as hAng2; the construct is not described; also called human Ang1
# T1 sequence (looked up): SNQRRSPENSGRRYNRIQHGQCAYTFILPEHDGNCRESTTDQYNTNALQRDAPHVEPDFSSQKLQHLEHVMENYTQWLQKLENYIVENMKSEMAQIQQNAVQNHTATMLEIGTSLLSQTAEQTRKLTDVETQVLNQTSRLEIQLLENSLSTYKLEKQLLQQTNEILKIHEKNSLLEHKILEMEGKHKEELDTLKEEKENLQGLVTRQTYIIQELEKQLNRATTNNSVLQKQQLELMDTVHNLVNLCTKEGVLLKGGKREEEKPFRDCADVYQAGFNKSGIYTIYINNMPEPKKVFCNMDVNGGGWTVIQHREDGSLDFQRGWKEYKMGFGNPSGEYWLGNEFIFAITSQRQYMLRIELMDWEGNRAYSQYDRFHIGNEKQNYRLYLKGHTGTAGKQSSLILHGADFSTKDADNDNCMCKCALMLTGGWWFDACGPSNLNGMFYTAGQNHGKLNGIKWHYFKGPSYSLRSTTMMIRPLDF
# T2: recombinant hAng-2 (C-His, R&D Systems) (human, UniProt O15123 19-496)
# T2 construct: Bought protein; Captured on an anti-His antibody chip for SPR; also called human Ang2; not shown: C-terminal His tag
# T2 sequence: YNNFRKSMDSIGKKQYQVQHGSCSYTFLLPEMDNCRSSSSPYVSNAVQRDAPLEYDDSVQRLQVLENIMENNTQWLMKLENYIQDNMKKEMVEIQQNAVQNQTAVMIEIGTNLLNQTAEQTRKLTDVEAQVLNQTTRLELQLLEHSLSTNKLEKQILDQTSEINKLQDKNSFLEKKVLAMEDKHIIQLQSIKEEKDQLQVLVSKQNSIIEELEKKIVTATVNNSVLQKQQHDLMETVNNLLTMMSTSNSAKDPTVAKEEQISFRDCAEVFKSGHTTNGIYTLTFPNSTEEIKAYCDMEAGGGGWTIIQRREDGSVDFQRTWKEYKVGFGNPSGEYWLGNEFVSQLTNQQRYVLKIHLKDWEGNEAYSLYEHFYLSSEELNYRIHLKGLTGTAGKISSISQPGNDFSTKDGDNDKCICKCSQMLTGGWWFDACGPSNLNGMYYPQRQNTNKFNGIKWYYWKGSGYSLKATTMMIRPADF
# T3: mouse Ang2 (Accession # NP-031452) (R&D Systems) (mouse, UniProt O35608 19-496)
# T3 construct: Bought protein coated on the ELISA plate; also called mAng2
# T3 sequence (looked up): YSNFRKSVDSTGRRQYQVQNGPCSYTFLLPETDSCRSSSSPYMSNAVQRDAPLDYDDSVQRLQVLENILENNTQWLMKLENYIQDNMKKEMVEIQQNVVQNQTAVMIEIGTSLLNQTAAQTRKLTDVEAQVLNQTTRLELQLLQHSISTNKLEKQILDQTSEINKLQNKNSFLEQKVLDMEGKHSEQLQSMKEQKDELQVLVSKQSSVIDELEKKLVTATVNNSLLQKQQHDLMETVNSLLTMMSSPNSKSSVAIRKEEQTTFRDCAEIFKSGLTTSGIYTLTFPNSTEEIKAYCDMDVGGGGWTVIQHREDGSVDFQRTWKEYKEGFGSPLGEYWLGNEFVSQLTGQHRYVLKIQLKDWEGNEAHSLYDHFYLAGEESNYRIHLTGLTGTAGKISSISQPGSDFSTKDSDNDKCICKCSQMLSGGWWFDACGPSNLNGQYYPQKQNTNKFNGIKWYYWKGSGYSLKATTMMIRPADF
# T4: FLAG-tagged hAng-2 (human, UniProt O15123 19-496)
# T4 sequence: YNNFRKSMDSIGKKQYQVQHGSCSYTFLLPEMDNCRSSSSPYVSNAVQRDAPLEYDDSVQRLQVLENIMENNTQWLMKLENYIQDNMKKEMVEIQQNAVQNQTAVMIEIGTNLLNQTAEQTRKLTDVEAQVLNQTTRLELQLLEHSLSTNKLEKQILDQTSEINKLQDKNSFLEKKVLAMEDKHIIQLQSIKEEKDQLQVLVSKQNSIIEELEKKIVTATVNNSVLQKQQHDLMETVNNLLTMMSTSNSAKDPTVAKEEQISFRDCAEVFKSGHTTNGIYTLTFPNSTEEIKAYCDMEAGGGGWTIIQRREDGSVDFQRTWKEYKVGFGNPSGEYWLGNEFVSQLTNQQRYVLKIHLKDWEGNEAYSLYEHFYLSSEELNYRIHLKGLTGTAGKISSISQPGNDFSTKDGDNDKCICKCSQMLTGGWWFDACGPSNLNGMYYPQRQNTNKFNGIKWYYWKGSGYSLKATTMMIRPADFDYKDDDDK
# What was measured:
# hAng1 = molecular target: T1, hAng1; assay: SPR, BIAcore T100
# [1] = molecular target: T2, recombinant hAng-2 (C-His, R&D Systems); assay: SPR, BIAcore T100; hAng-2 C-His captured on anti-His chip, antibody flowed
# Protocol: To more exactly measure the binding affinity of the anti-Ang2 antibodies to antigen Ang2, the binding affinity of the above antibodies to the antigen was measured by an surface plasmon resonance (SPR) method using BIAcore T100 (GE Healthcare). The SPR method uses refractive index change of light which passes a sensor chip according to the state of materials coated onto the sensor chip, and if an antigen or an antibody is flowed onto a chip coated with the antigen or antibody, it causes changes in refractive index due to their binding and Kd values are thus calculated from the measured values.
# First, anti-His antibody was immobilized on a CM5 sensor chip (GE healthcare) up to 8,000 RU levels using a pH 5.0 acetate solution and an amine coupling kit (GE Healthcare). 6 μg/ml of a recombinant hAng-2 (C-His, R&D Systems) protein was flowed onto the chip to be captured at 100 to 200 RU levels.
# [2] = molecular target: T3, mouse Ang2 (Accession # NP-031452) (R&D …); assay: ELISA on coated mouse Ang2; 50% binding concentration, which the filing calls Kd
# Protocol: An ELISA was conducted to measure the binding affinity of the antibodies prepared in Example 2 to mouse Ang2(mAng2). MaxiSorp™ flat-bottom plate (Nunc) of 96-well was coated with 5-20 μg/ml of mouse Ang2 (Mouse Ang2; Accession # NP_{—}031452) (R&D Systems). Thereafter, the plate was washed five times with 0.05% (v/v) Tween-20-containing PBS (PBST) and then blocked with 1% (v/v) BSA (bovine serum albumin; Sigma)-containing PBS at a room temperature for 2 hour. Each of the anti-Ang2 antibodies was added to each well of the plate at various concentrations, and the plate was allowed to react at a room temperature for 2 hours.
# Thereafter, the plate was washed five times with PBST. Then, a HRP-conjugated anti-mouse IgG antibody (Santacruz) diluted in 1% (v/v) BSA-containing PBS at a ratio of 1:1,000 (v/v) was added in an amount of 50 μl to each well to react at a room temperature for 1 hour and then, the plate was washed five times with PBST. Lastly, 100 μl of TMB substrate (Cell Signaling) was added to each well of the plate to induce color development for 3 min. and then, the reaction was ceased by the addition of 100 μl of Stop solution (Cell Signaling) and OD450 values were measured on a plate reader (Molecular Devices).
# From the obtained results, 50% binding concentration (Kd) of the anti-Ang2 antibody to Ang2 protein is obtained, thereby measuring the binding intensity of each of the anti-Ang2 antibodies to Ang2.
# FLAG-tagged hAng-2 = molecular target: T4, FLAG-tagged hAng-2; assay: Ang2:Tie2 competition ELISA; hTie2-Fc coated, 400 ng/ml FLAG-tagged hAng-2, anti-FLAG-HRP detection
# Protocol: More specifically, MaxiSorp™ flat-bottom plate (Nunc) of 96-well was coated with hTie2-Fc (R&D Systems) which is a protein bound with 4 μg/ml of Fc of human IgG1. After coating, the plate was washed five times with 0.05% (v/v) Tween-20-containing PBS (phosphate buffer saline) and then blocked with 1% (v/v) BSA (bovine serum albumin; Sigma)-containing PBS at a room temperature for 2 hour.
# For Ang2:Tie2 competition ELISA, each anti-Ang2 antibody obtained in Example 2 was placed at various concentrations of 400 nM-0.001 nM into each well coated with the hTie-2/Fc fusion protein along with 1% (v/v) BSA and 400 ng/ml of a FLAG-tagged hAng-2 and then, the plate was allowed to react at a room temperature for 2 hours and washed five times with PBST. After that, a HRP-conjugated anti-FLAG antibody (Sigma) diluted in 1% (v/v) BSA-containing PBS at a ratio of 1:5,000 (v/v) was added in an amount of […] to each well to react at a room temperature for 1 hour and then, the plate was washed five times with PBST. Lastly, 100 μl of TMB substrate (Cell Signaling) was added to each well of the plate to induce color development for 3 min. and then, the reaction was ceased by the addition of 100 μl of Stop solution (Cell Signaling) and OD450 values were measured on a plate reader (Molecular Devices).
binder,measurement,setting,value
"SAIT-ANG2-AB-m1B6 (antibody, V domains shown, also called hybridoma KCLRF-BP-00307) VH: QIQLVQSGPELKKPGETVKISCKASGYTFTNYGMNWVKQAPGKGLKWMGWINTYTGEPTYADDFKGRFAFSLETSASTAYLQINNLKNEDTATYFCARDHDGYLMDYWGQGTSVTVSS VL: DIQMTQTTSSLSASLGDRVTISCSTSQGISNYLNWYQQKPDGTVKLLIFYTSSLHSGVPSRFSGSGSGTDYSLTISNLEPEDIATYYCQQYSKLPYTFGGGTKLEIK",binding result,hAng1,no binding (tested: 100 nM (highest antibody concentration))
same,Kd,[1],2.3 nM
same,Kd,[2],2.1 nM
same,IC50,FLAG-tagged hAng-2,2.89 nM

# Source: US20150210761A1 (SAMSUNG ELECTRONICS, published 2015)
